Data reported in US6673915.

Target: CC CKR2B stably expressed on HEK-293 cells (Example 10A) (human) (UniProt P41597)
Assay: cell-based or functional assay

CC CKR2B stably expressed on HEK-293 cells (Example 10A) (human), sequence (P41597 whole entry): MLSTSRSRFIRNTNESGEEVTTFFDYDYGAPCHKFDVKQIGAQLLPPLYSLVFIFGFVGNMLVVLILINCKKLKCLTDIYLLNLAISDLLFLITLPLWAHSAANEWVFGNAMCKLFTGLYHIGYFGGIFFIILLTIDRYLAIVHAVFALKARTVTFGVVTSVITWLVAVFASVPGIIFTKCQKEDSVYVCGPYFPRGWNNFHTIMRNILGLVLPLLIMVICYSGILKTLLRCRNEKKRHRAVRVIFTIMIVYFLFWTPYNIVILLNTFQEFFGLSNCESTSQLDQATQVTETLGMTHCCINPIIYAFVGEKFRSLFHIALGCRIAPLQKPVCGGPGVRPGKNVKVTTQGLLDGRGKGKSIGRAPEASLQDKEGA

half-maximal effective concentration of calcium flux: 15 nM | saturation of calcium flux response: 100 nM
Substance: recombinant human MCP-4 with the mature N-terminal Gln (PeproTech), Q99616 24-98 (ligand)
